Patent US6872537 (University of California, dated 2005)

B1: baculovirus-expressed S. purpuratus katanin p60 subunit with N-terminal His(6) tag (enzyme)
chain: HHHHHHMSVDEICENTKMGREYALLGNYETSLVYYQGVLQQIQKLLTSVHEPQRKHQWQTIRQELSQEYEHVKNITKTLNGFKSEPAAPEPAPNHGRAAPFSHHQHAAKPAAAEPARDPDVWPPPTPVDHRPSPPYQRAARKDPPRRSEPSKPANRAPGNDRGGRGPSDRRGDARSGGGGRGGARGSDKDKNRGGKSDKDKKAPSGEEGDEKKFDPAGYDKDLVENLERDIVQRNPNVHWADIAGLTEAKRLLEEAVVLPLWMPDYFKGIRRPWKGVLMVGPPGTGKTMLAKAVATECGTTFFNVSSASLTSKYHGESEKLVRLLFEMARFYAPSTIFIDEIDSICSKRGTGSEHEASRRVKSELLIQMDGVSGPSAGEESSKMVMVLAATNFPWDIDEALRRRLEKRIYIPLPEIDGREQLLRINLKEVPLADDIDLKSIAEKMDGYSGADITNVCRDASMMAMRRRIQGLRPEEIRHIPKEELNQPSTPADFLLALQKVSKSVGKEDLVKYMAWMEEFGSV
notes: Expressed from pFastBac HT in Sf9 cells; also called p60 katanin; recombinant p60
B2: baculovirus-expressed S. purpuratus katanin p80 subunit with N-terminal His(6) tag (other)
chain: HHHHHHMATKRAWKLQELVAHSSNVNCLALGPMSGRVMVTGGEDKKVNLWAVGKQNCIISLSGHTSPVDSVKFNSSEELVVAGSQSGTMKIYDLEPAKIVRTLTGHRNSIRCMDFHPFGEFVASGSTDTNVKLWDVRRKGCIYTYKGHSDQVNMIKFSPDGKWLVTASEDTTIKLWDLTMGKLFQEFKNHTGGVTGIEFHPNEFLLASGSSDRTVQFWDLETFQLVSSTSPGASAVRSISFHPDGSYLFCSSQDMLHAFGWEPIRCFDTFSVFWGKVADTVIASTQLIGASFNATNVSVYVADLSRMSTTGIAQEPQSQPSKTPSGGAEEVPSKPLTASGRKNFVRERPHTTSSKQRQPDVKSEPERQSPTQDEGVKDDDATDIKDPDSYAKIFSPKTRVDHSPERNAQPFPAPLDVPGAQEPEPFKHPPKPAAAAAVAPVSRAPAPSASDWQPAQANPAPNRVPAATKPVPAQEVAPSRKPDPISTIIPSDRNKPANLDMDAFLPPAHAQQAPRVNAPASRKQSDSERIEGLRKGHDSMCQVLSSRHRNLDVVRAIWTAGDAKTSVESVVNMKDQAILVDILNIMLLKKSLWNLDMCVVVLPRLKELLSSKYENYVHTSCACLKLILKNFTSLFNQNIKCPPSGIDITREERYNKCSKCYSYLIATRGYVEEKQHVSGKLGSSFRELHLLLDQLE
notes: Expressed from pFastBac HT in Sf9 cells; also called p80 katanin; recombinant p80

Key:
[1] = target: the molecule itself; assay: rotary-shadowing electron microscopy of recombinant p60 on mica (self-association into rings)
[2] = target: B2; assay: co-immunoprecipitation from insect cells co-infected with p60 and p80 baculoviruses, SDS-PAGE with Coomassie
Experimental: 6xHis-tagged (SEQ ID NO:14) katanin subunits were purified from lysates of baculovirus-infected insect cells by binding to Ni^2+-NTA Superflow followed by elution with imidazole, as described in the Experimental Procedures. […] Proteins bound to the resin were analyzed by SDS-PAGE followed by staining with Coomassie.
After equilibration in TBST, 20–40 μl of antibody beads were added to katanin samples diluted in TBST containing 1–2 mg/ml soybean trypsin inhibitor (SBTI). The immunoprecipitations were incubated at 4° C. for 1–2 hr, washed five times with 1 ml of ice-cold TBST, and eluted in SDS-containing sample buffer.

[3] = target: B1; assay: Ni-NTA purification of co-expressed His-tagged subunits, Coomassie-stained SDS-PAGE

Binder	binding result [1]	binding result [2]	p60:p80 molar ratio in the purified co-expressed protein [3]
B1	binds	binds	
B2			~0.9 mol p80 per mol p60
